# Measurements reported in patent publication US20210332382A1.
# How the values were obtained:
# [1] = molecular target: Adenovirus delta 24, serotype 5 virus with a modified knob from serotype 3 adenovirus (AdV 5/3), whole virus particles; test: MP-SPR, peptide over AdV on APTES sensor, water, Max (100 µM peptide in solution)
# [2] = molecular target: Adenovirus delta 24, serotype 5 virus with a modified knob from serotype 3 adenovirus (AdV 5/3), whole virus particles; test: MP-SPR, peptide over AdV on APTES sensor, A195 buffer, Max (100 µM peptide in solution)
# [3] = molecular target: Adenovirus delta 24, serotype 5 virus with a modified knob from serotype 3 adenovirus (AdV 5/3), whole virus particles; test: MP-SPR, peptide over AdV on APTES sensor, water, Min (after flush, no peptide in solution)
# [4] = molecular target: Adenovirus delta 24, serotype 5 virus with a modified knob from serotype 3 adenovirus (AdV 5/3), whole virus particles; test: MP-SPR, peptide over AdV on APTES sensor, A195 buffer, Min (after flush, no peptide in solution)
Binder,Adsorbed Peptides SPR response [1],Mass Peptide [1],Mass/Area Peptide [1],Moles peptide [1],Adsorbed Peptides SPR response [2],Mass Peptide [2],Mass/Area Peptide [2],Moles peptide [2],Adsorbed Peptides SPR response [3],Mass Peptide [3],Mass/Area Peptide [3],Moles peptide [3],Adsorbed Peptides SPR response [4],Mass Peptide [4],Mass/Area Peptide [4],Moles peptide [4]
"KKKKKKVFGIELMEVDPIGHLYIFAT [PEP1455 = KKKKKK-… (6K-MAGE-A3 peptide, MAGE-A3 161-180 with a 6-lysine tail at the amino terminus)]",0.153 Δ°,0.72 ng,91.9 ng/cm^2,2.38e-13 mol,0.078 Δ°,0.37 ng,46.8 ng/cm^2,1.21e-13 mol,0.0674 Δ°,0.32 ng,40.4 ng/cm^2,1.05e-13 mol,0.0174 Δ°,0.08 ng,10.4 ng/cm^2,2.7e-14 mol
KKKKKKYLAMPFATPMEAELARRSLA,0.0386 Δ°,0.18 ng,23.2 ng/cm^2,6.05e-14 mol,0.044 Δ°,0.21 ng,26.4 ng/cm^2,6.89e-14 mol,0.0184 Δ°,0.09 ng,11 ng/cm^2,2.88e-14 mol,0.012 Δ°,0.06 ng,7.2 ng/cm^2,1.88e-14 mol
"KKKKKKKKKVFGIELMEVDPIGHLYIFAT [PEP1456 = …-… (9K-MAGE-A3 peptide, MAGE-A3 161-180 with a 9-lysine tail at the amino terminus)]",0.13 Δ°,0.61 ng,78.2 ng/cm^2,1.8e-13 mol,0.371 Δ°,1.75 ng,223 ng/cm^2,5.12e-13 mol,0.029 Δ°,0.14 ng,17.4 ng/cm^2,4e-14 mol,0.276 Δ°,1.3 ng,166 ng/cm^2,3.81e-13 mol
